Results published in the supplement of paper PMC7877785.
± gives the uncertainty stated by the source.

Assay: self-splicing fitness, log relative to wild type (ln ratio); higher = more splicing; Tetrahymena group I intron in knt gene, E. coli kanamycin selection, DiMSum; sequences stand for … in CUCUCU…GGAGGGAAAAGUUAUCAGGCAUGCACCUGGUAGCUAGUCUUUAAACCAAUAGAUUGCAUCGGUUUAAAAGGCAAGACCGUCAAAUUGCGGGAAAGGGGUCAACAGCCGUUCAGUACCAAGUCUCAGGGGAAACUUUGAGAUGGCCUUGCAAAGGGUAUGGUAAUAAGCUGACGGACAUGGUCCUAACCACGCAGCCAAGUCCUAAGUCAACAGAUCUUCUGUUGAUAUGGAUGCAGUUCACAGACUAAAUGUCGGUCGGGGAAGAUGUAUUCUUCUCAUAAGAUAUAGUCGGACCUCUCCUUAAUGGGAGCUAGCGGAUGAAGUGAUGCAACACUGGAGCCGCUGGGAACUAAUUUGUAUGCGAAAGUAUAUUGAUUAGUUUUGGAGUACUCGUGGUCG
Procedure, shortened: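 Six replicate transformations of E. coli BL21(DE3) with a pET-22b(+) library were grown overnight at 37°C or 30°C. The library randomised all eight P1ex-region intron nucleotides, the intron lying in the knt kanamycin-resistance gene, and plates were LB agar with or without 25 μg/mL kanamycin plus 100 μg/mL carbenicillin, 50 μM IPTG and 0.2% rhamnose. Pooled colonies were amplicon-sequenced on an Illumina HiSeq 2500, and fitness is the DiMSum error-weighted combination of wild-type-normalised replicate fold changes, kanamycin versus none.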

CCUUAGCAAUAUUACGCAAG
self-splicing fitness (ln) (37 °C): -3.09 ± 0.33

ACCCAGCAAUAUUACGUUGG
self-splicing fitness (ln) (30 °C): -3.6 ± 0.1
self-splicing fitness (ln) (37 °C): -2.16 ± 0.11

ACUCAGCAAUAUUACGCCAU
self-splicing fitness (ln) (30 °C): -3.02 ± 0.17
self-splicing fitness (ln) (37 °C): -2.28 ± 0.16

CGUGAGCAAUAUUACGGAUA
self-splicing fitness (ln) (30 °C): -3.1 ± 0.3
self-splicing fitness (ln) (37 °C): -2.71 ± 0.34

AGAGAGCAAUAUUACGUGUG
self-splicing fitness (ln) (30 °C): -3.84 ± 0.16
self-splicing fitness (ln) (37 °C): -3.07 ± 0.24

AUUCAGCAAUAUUACGUAGG
self-splicing fitness (ln) (30 °C): -1.64 ± 0.13
self-splicing fitness (ln) (37 °C): -0.941 ± 0.17

CAAGAGCAAUAUUACGGAAC
self-splicing fitness (ln) (30 °C): -3.74 ± 0.17
self-splicing fitness (ln) (37 °C): -2.52 ± 0.19

GAGUAGCAAUAUUACGUUGC
self-splicing fitness (ln) (30 °C): -3.27 ± 0.23
self-splicing fitness (ln) (37 °C): -1.79 ± 0.27

GGUCAGCAAUAUUACGUAUC
self-splicing fitness (ln) (30 °C): -0.892 ± 0.078
self-splicing fitness (ln) (37 °C): -0.138 ± 0.1

GAGCAGCAAUAUUACGUACU
self-splicing fitness (ln) (30 °C): -0.0719 ± 0.068
self-splicing fitness (ln) (37 °C): -0.502 ± 0.085

CUACAGCAAUAUUACGAAAA
self-splicing fitness (ln) (30 °C): -2.2 ± 0.21
self-splicing fitness (ln) (37 °C): -1.92 ± 0.21

CCGAAGCAAUAUUACGCGCA
self-splicing fitness (ln) (30 °C): -2.85 ± 0.28
self-splicing fitness (ln) (37 °C): -1.95 ± 0.21

CCCUAGCAAUAUUACGAGAA
self-splicing fitness (ln) (30 °C): -2.85 ± 0.45
self-splicing fitness (ln) (37 °C): -2.67 ± 0.44

AACAAGCAAUAUUACGAGAC
self-splicing fitness (ln) (30 °C): -1.88 ± 0.11
self-splicing fitness (ln) (37 °C): -2.67 ± 0.19

CGUUAGCAAUAUUACGGGGU
self-splicing fitness (ln) (30 °C): -3.72 ± 0.24
self-splicing fitness (ln) (37 °C): -2.03 ± 0.35

AGUUAGCAAUAUUACGACGC
self-splicing fitness (ln) (30 °C): -0.0216 ± 0.11
self-splicing fitness (ln) (37 °C): 0.486 ± 0.13

UACGAGCAAUAUUACGCGUU
self-splicing fitness (ln) (30 °C): -1.67 ± 0.2
self-splicing fitness (ln) (37 °C): -3.64 ± 0.42

CUUAAGCAAUAUUACGUCAC
self-splicing fitness (ln) (30 °C): -3.97 ± 0.29
self-splicing fitness (ln) (37 °C): -2.91 ± 0.3

UUAAAGCAAUAUUACGCACG
self-splicing fitness (ln) (30 °C): -0.443 ± 0.092
self-splicing fitness (ln) (37 °C): 0.47 ± 0.14

GAUAAGCAAUAUUACGUUCA
self-splicing fitness (ln) (30 °C): -0.732 ± 0.093
self-splicing fitness (ln) (37 °C): -0.316 ± 0.12

UGAAAGCAAUAUUACGCAGC
self-splicing fitness (ln) (37 °C): -1.62 ± 0.22

GGUGAGCAAUAUUACGGGAU
self-splicing fitness (ln) (30 °C): -3.28 ± 0.41
self-splicing fitness (ln) (37 °C): -2.62 ± 0.34

GUUUAGCAAUAUUACGCCCA
self-splicing fitness (ln) (30 °C): -1.48 ± 0.19
self-splicing fitness (ln) (37 °C): -0.953 ± 0.33

UGAAAGCAAUAUUACGCAUA
self-splicing fitness (ln) (30 °C): -1.31 ± 0.098
self-splicing fitness (ln) (37 °C): -0.274 ± 0.11

AAAAAGCAAUAUUACGGCAU
self-splicing fitness (ln) (30 °C): 0.0355 ± 0.061
self-splicing fitness (ln) (37 °C): 0.55 ± 0.081

ACCUAGCAAUAUUACGACUU
self-splicing fitness (ln) (30 °C): -0.837 ± 0.094
self-splicing fitness (ln) (37 °C): 0.22 ± 0.1

GGUGAGCAAUAUUACGGCCU
self-splicing fitness (ln) (30 °C): -2.79 ± 0.26
self-splicing fitness (ln) (37 °C): -2.96 ± 0.43

CUUCAGCAAUAUUACGUUAC
self-splicing fitness (ln) (30 °C): -3.35 ± 0.28
self-splicing fitness (ln) (37 °C): -2.27 ± 0.27

CCAUAGCAAUAUUACGUUCU
self-splicing fitness (ln) (30 °C): -3.64 ± 0.25
self-splicing fitness (ln) (37 °C): -3.4 ± 0.32

UUAUAGCAAUAUUACGGAUU
self-splicing fitness (ln) (30 °C): -3.1 ± 0.43
self-splicing fitness (ln) (37 °C): -2.02 ± 0.29

CGGGAGCAAUAUUACGUCUU
self-splicing fitness (ln) (37 °C): -0.499 ± 0.36

ACUUAGCAAUAUUACGGCUA
self-splicing fitness (ln) (30 °C): -2.6 ± 0.2
self-splicing fitness (ln) (37 °C): -0.214 ± 0.1

GCUGAGCAAUAUUACGUGAU
self-splicing fitness (ln) (30 °C): -1.02 ± 0.1
self-splicing fitness (ln) (37 °C): -1.13 ± 0.14

CCAAAGCAAUAUUACGUGGC
self-splicing fitness (ln) (30 °C): -1.62 ± 0.098
self-splicing fitness (ln) (37 °C): -2.29 ± 0.21

CUCUAGCAAUAUUACGUACU
self-splicing fitness (ln) (30 °C): -3.33 ± 0.27
self-splicing fitness (ln) (37 °C): -2.39 ± 0.25

CUUAAGCAAUAUUACGGUGA
self-splicing fitness (ln) (30 °C): -3.72 ± 0.24
self-splicing fitness (ln) (37 °C): -2.17 ± 0.19

CUCCAGCAAUAUUACGAUGU
self-splicing fitness (ln) (30 °C): -3.28 ± 0.17
self-splicing fitness (ln) (37 °C): -2.9 ± 0.21

CUCAAGCAAUAUUACGAUGC
self-splicing fitness (ln) (30 °C): -3.9 ± 0.15
self-splicing fitness (ln) (37 °C): -2.95 ± 0.17
